Laboratory results as given in PMC4820748, “Structural basis for the membrane association of ankyrinG via palmitoylation” (Scientific Reports, 2016).

Biological target: the molecule itself
Assay: crystal structure; oxidized form, C121 crystal; sitting-drop vapor diffusion at 20 °C; reservoir 10 mM MgCl2-hexahydrate, 50 mM Tris-HCl (pH 7.5), 1.6 M (NH4)2SO4; asymmetric unit holds one dimeric molecule

B1: AnkG (R1-R5), head-section of the membrane-binding domain of rat ankyrin-G (domain or fragment)
chain: GTKSDANASYLRAARAGHLEKALDYIKNGVDVNICNQNGLNALHLASKEGHVEVVSELLQREANVDAATKKGNTALHIASLAGQAEVVKVLVTNGANVNAQSQNGFTPLYMAAQENHLEVVRFLLDNGASQSLATEDGFTPLAVALQQGHDQVVSLLLENDTKGK
notes: two extra residues, Gly-Thr, left at the N-terminus after the TEV cleavage; In the oxidized form two chains are linked by a disulfide bond between the two Cys70 residues; in the reduced form Cys70 is free; also called ANK3 (R1-R5); AnkG palmitoylation domain; source: E. coli BL21(DE3)pLysS, purified (nickel column, TEV cleavage, superdex200 gel filtration); not shown: His tag, N-terminal, cleaved
B1 was tested. Which “stoichiometry N” value did it give?
The value was 2.
